In the supplement of paper PMC9112550, “Optimization of the antimicrobial peptide Bac7 by deep mutational scanning” (BMC Biology, 2022):

Each sequence was assayed on Escherichia coli TOP10 (assay: shrunken log2 fold change of peptide-encoding DNA abundance (4.5 h post-induction vs induction); higher = less antimicrobial activity (less host growth inhibition)). Conditions: time post-induction: 4.5 h; library: site-saturation at positions 5, 18, 19, 20.
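Further: peptides expressed intracellularly from a pBAD plasmid library in pooled LB shake-flask culture, induced with 0.3% L-arabinose, DNA abundance read by NGS, three biological replicates, DESeq2 with apeglm shrinkage.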

For RRIRFRPPRLPRPRPRPQHFPRP, which “shrunken log2 fold change” value is on record?
Its value is 0.205.

With RRIRCRPPRLPRPRPRPPQQPRP as the sequence, how does the “shrunken log2 fold change” value read?
Its value is 0.549.

Which “shrunken log2 fold change” value does the source give for RRIRSRPPRLPRPRPRPVCIPRP here?
Its value is -0.414.

With RRIRRRPPRLPRPRPRPKNQPRP as the sequence, how does the “shrunken log2 fold change” value read?
Its value is 0.173.

For RRIRPRPPRLPRPRPRPMLYPRP, which “shrunken log2 fold change” value is on record?
The value was -0.0392.

Which “shrunken log2 fold change” value does the source give for RRIRIRPPRLPRPRPRPGQQPRP here?
Its value is 0.0905.

For RRIRTRPPRLPRPRPRPDYCPRP, which “shrunken log2 fold change” value is on record?
The value was -0.125.

How did the “shrunken log2 fold change” value turn out when RRIRKRPPRLPRPRPRPVYLPRP was run?
The value was -0.326.

RRIRFRPPRLPRPRPRPVMFPRP was tested. Which “shrunken log2 fold change” value did it give?
Its value is -0.218.

Which “shrunken log2 fold change” value does the source give for RRIRHRPPRLPRPRPRPHTYPRP here?
The value was -0.79.

Which “shrunken log2 fold change” value does the source give for RRIRKRPPRLPRPRPRPMDCPRP here?
Its value is 0.0101.

Which “shrunken log2 fold change” value does the source give for RRIRYRPPRLPRPRPRPKHLPRP here?
Its value is -0.155.

With RRIRLRPPRLPRPRPRPCQLPRP as the sequence, how does the “shrunken log2 fold change” value read?
Its value is -0.8.

How did the “shrunken log2 fold change” value turn out when RRIRCRPPRLPRPRPRPSPHPRP was run?
Its value is -0.144.

With RRIRHRPPRLPRPRPRPDGGPRP as the sequence, how does the “shrunken log2 fold change” value read?
The value was -0.137.

How did the “shrunken log2 fold change” value turn out when RRIRHRPPRLPRPRPRPYGVPRP was run?
Its value is -0.256.

How did the “shrunken log2 fold change” value turn out when RRIRDRPPRLPRPRPRPLDFPRP was run?
The value was 0.0675.

With RRIRWRPPRLPRPRPRPLLRPRP as the sequence, how does the “shrunken log2 fold change” value read?
The value was 0.325.

Which “shrunken log2 fold change” value does the source give for RRIRFRPPRLPRPRPRPRSQPRP here?
The value was -0.105.

With RRIRRRPPRLPRPRPRPWDFPRP as the sequence, how does the “shrunken log2 fold change” value read?
The value was 0.0406.

Which “shrunken log2 fold change” value does the source give for RRIRDRPPRLPRPRPRPKKIPRP here?
The value was 0.0726.

With RRIRVRPPRLPRPRPRPKGRPRP as the sequence, how does the “shrunken log2 fold change” value read?
Its value is 0.211.

For RRIRFRPPRLPRPRPRPNRVPRP, which “shrunken log2 fold change” value is on record?
Its value is -0.0261.

Which “shrunken log2 fold change” value does the source give for RRIRWRPPRLPRPRPRPPGWPRP here?
The value was 0.527.

How did the “shrunken log2 fold change” value turn out when RRIRGRPPRLPRPRPRPPQGPRP was run?
Its value is 0.812.

For RRIRARPPRLPRPRPRPMSKPRP, which “shrunken log2 fold change” value is on record?
The value was 0.16.

For RRIRHRPPRLPRPRPRPWVIPRP, which “shrunken log2 fold change” value is on record?
Its value is 0.00302.

RRIRERPPRLPRPRPRPQNAPRP was tested. Which “shrunken log2 fold change” value did it give?
The value was 0.0619.

With RRIRYRPPRLPRPRPRPFVYPRP as the sequence, how does the “shrunken log2 fold change” value read?
The value was -1.51.

For RRIRWRPPRLPRPRPRPTSAPRP, which “shrunken log2 fold change” value is on record?
The value was 0.389.

Which “shrunken log2 fold change” value does the source give for RRIRWRPPRLPRPRPRPRYEPRP here?
The value was 0.0756.

How did the “shrunken log2 fold change” value turn out when RRIRYRPPRLPRPRPRPEFFPRP was run?
The value was -0.0803.

With RRIRGRPPRLPRPRPRPHNQPRP as the sequence, how does the “shrunken log2 fold change” value read?
The value was 0.05.

With RRIRRRPPRLPRPRPRPRNGPRP as the sequence, how does the “shrunken log2 fold change” value read?
The value was 0.144.

With RRIRTRPPRLPRPRPRPYKIPRP as the sequence, how does the “shrunken log2 fold change” value read?
The value was -0.15.

RRIRYRPPRLPRPRPRPLWHPRP was tested. Which “shrunken log2 fold change” value did it give?
The value was -0.48.

RRIRPRPPRLPRPRPRPRWDPRP was tested. Which “shrunken log2 fold change” value did it give?
Its value is -0.0161.

With RRIRTRPPRLPRPRPRPWCWPRP as the sequence, how does the “shrunken log2 fold change” value read?
Its value is -0.0632.

Which “shrunken log2 fold change” value does the source give for RRIRRRPPRLPRPRPRPTPIPRP here?
The value was 1.03.

For RRIRIRPPRLPRPRPRPKRSPRP, which “shrunken log2 fold change” value is on record?
Its value is -0.335.

RRIRPRPPRLPRPRPRPSWYPRP was tested. Which “shrunken log2 fold change” value did it give?
The value was -0.698.

How did the “shrunken log2 fold change” value turn out when RRIRQRPPRLPRPRPRPSQSPRP was run?
The value was -0.00144.

How did the “shrunken log2 fold change” value turn out when RRIRFRPPRLPRPRPRPRFGPRP was run?
Its value is -0.0656.

How did the “shrunken log2 fold change” value turn out when RRIRRRPPRLPRPRPRPKNLPRP was run?
The value was -0.104.

Which “shrunken log2 fold change” value does the source give for RRIRDRPPRLPRPRPRPCGDPRP here?
The value was 0.0915.

With RRIRARPPRLPRPRPRPSLQPRP as the sequence, how does the “shrunken log2 fold change” value read?
The value was 0.193.

Which “shrunken log2 fold change” value does the source give for RRIRGRPPRLPRPRPRPECAPRP here?
The value was 2.14.

RRIRFRPPRLPRPRPRPYCPPRP was tested. Which “shrunken log2 fold change” value did it give?
Its value is -0.721.

With RRIRYRPPRLPRPRPRPAVAPRP as the sequence, how does the “shrunken log2 fold change” value read?
The value was 0.159.

How did the “shrunken log2 fold change” value turn out when RRIRRRPPRLPRPRPRPWLGPRP was run?
The value was 0.353.

RRIRFRPPRLPRPRPRPYVDPRP was tested. Which “shrunken log2 fold change” value did it give?
The value was -0.00112.

For RRIRSRPPRLPRPRPRPHGNPRP, which “shrunken log2 fold change” value is on record?
Its value is -0.00459.

Which “shrunken log2 fold change” value does the source give for RRIRWRPPRLPRPRPRPEKNPRP here?
Its value is 0.686.

RRIRRRPPRLPRPRPRPWWEPRP was tested. Which “shrunken log2 fold change” value did it give?
The value was 1.82.

How did the “shrunken log2 fold change” value turn out when RRIRLRPPRLPRPRPRPYAWPRP was run?
Its value is 0.0863.

RRIRGRPPRLPRPRPRPRMEPRP was tested. Which “shrunken log2 fold change” value did it give?
Its value is 0.483.

For RRIRMRPPRLPRPRPRPPAFPRP, which “shrunken log2 fold change” value is on record?
The value was 0.82.

For RRIRSRPPRLPRPRPRPESPPRP, which “shrunken log2 fold change” value is on record?
Its value is 0.32.

How did the “shrunken log2 fold change” value turn out when RRIRDRPPRLPRPRPRPKVYPRP was run?
Its value is -0.0329.

RRIRSRPPRLPRPRPRPKNVPRP was tested. Which “shrunken log2 fold change” value did it give?
The value was -0.29.

RRIRPRPPRLPRPRPRPGCHPRP was tested. Which “shrunken log2 fold change” value did it give?
The value was 0.332.

For RRIRARPPRLPRPRPRPYEDPRP, which “shrunken log2 fold change” value is on record?
The value was -0.117.

How did the “shrunken log2 fold change” value turn out when RRIRCRPPRLPRPRPRPKIVPRP was run?
Its value is -0.29.

How did the “shrunken log2 fold change” value turn out when RRIRMRPPRLPRPRPRPDVCPRP was run?
Its value is 0.0762.

Which “shrunken log2 fold change” value does the source give for RRIRRRPPRLPRPRPRPVHWPRP here?
Its value is 0.00204.

With RRIRSRPPRLPRPRPRPSVYPRP as the sequence, how does the “shrunken log2 fold change” value read?
Its value is -0.81.

RRIRHRPPRLPRPRPRPAIPPRP was tested. Which “shrunken log2 fold change” value did it give?
Its value is -0.112.

Which “shrunken log2 fold change” value does the source give for RRIRNRPPRLPRPRPRPNSDPRP here?
The value was -0.073.

With RRIRWRPPRLPRPRPRPEVWPRP as the sequence, how does the “shrunken log2 fold change” value read?
The value was 0.966.

For RRIRTRPPRLPRPRPRPWTHPRP, which “shrunken log2 fold change” value is on record?
Its value is -0.0143.

RRIRPRPPRLPRPRPRPFEIPRP was tested. Which “shrunken log2 fold change” value did it give?
The value was -0.0325.

Which “shrunken log2 fold change” value does the source give for RRIRQRPPRLPRPRPRPYIHPRP here?
Its value is -0.912.

Which “shrunken log2 fold change” value does the source give for RRIRMRPPRLPRPRPRPGGRPRP here?
The value was 1.04.

With RRIRGRPPRLPRPRPRPEPAPRP as the sequence, how does the “shrunken log2 fold change” value read?
Its value is 1.69.

Which “shrunken log2 fold change” value does the source give for RRIRSRPPRLPRPRPRPERWPRP here?
Its value is 1.14.
